Numbering of substitutions follows the chain as printed. Names and notes keep the numbering of the source.
Legend:
[1] = molecular target: the molecule itself; test: crystal structure; orthorhombic crystal P212121 of AGT-Ma holo, hanging drop, 21 °C, PEG 6K 12%, 0.1 M MES pH 5.0; 1.7 Å; 2 molecules (1 dimer) per asymmetric unit
[2] = molecular target: the molecule itself; test: crystal structure; crystal P212121 of AGT-Ma-D183N holo, sitting drop, 21 °C, PEG 10K 17%, 0.1 M Bis-Tris pH 5.5, 0.1 M ammonium acetate; 1.8 Å; eight molecules (4 dimers) per asymmetric unit

B1: human alanine:glyoxylate aminotransferase major allele, wild type (enzyme)
chain: MASHKLLVTPPKALLKPLSIPNQLLLGPGPSNLPPRIMAAGGLQMIGSMSKDMYQIMDEIKEGIQYVFQTRNPLTLVISGSGHCALEAALVNVLEPGDSFLVGANGIWGQRAVDIGERIGARVHPMTKDPGGHYTLQEVEEGLAQHKPVLLFLTHGESSTGVLQPLDGFGELCHRYKCLLLVDSVASLGGTPLYMDRQGIDILYSGSQKALNAPPGTSLISFSDKAKKKMYSRKTKPFSFYLDIKWLANFWGCDDQPRMYHHTIPVISLYSLRESLALIAEQGLENSWRQHREAAAYLHGRLQALGLQLFVKDPALRLPTVTTVAVPAGYDWRDIVSYVIDHFDIEIMGGLGPSTGKVLRIGLLGCNATRENVDRVTEALRAALQHCPKKKL
modifications: Lys-209 in Schiff base linkage with PLP (internal aldimine); the linkage is photoreduced and broken in the late dataset
notes: alanine:glyoxylate aminotransferase (AGT), human, major allele; also called AGT-Ma; AGT
Does B1 bind [1]?
Result: binds

B2: human alanine:glyoxylate aminotransferase major allele, pathogenic variant D183N (enzyme)
chain: B1 chain with D183N
modifications: Lys-209 in Schiff base linkage with PLP (internal aldimine)
notes: alanine:glyoxylate aminotransferase (AGT), human, major allele, with the pathogenic (primary hyperoxaluria type I) mutation D183N; also called AGT-Ma D183N; AGT-D183N
Does B2 bind [2]?
Result: binds
